From patent publication US7763704B2, “Sushi peptide multimer” (priority 2003, dated 2010)

B1: rS3-4mer: recombinant tetramer of S3 peptide in tandem repeat with Asp-Pro linkers, 18.4 kDa, SEQ ID NO:9 (protein)
chain: PQDPHAEHKVKIGVEQKYGQFPQGTEVTYTCSGNYFLMDPQDPHAEHKVKIGVEQKYGQFPQGTEVTYTCSGNYFLMDPQDPHAEHKVKIGVEQKYGQFPQGTEVTYTCSGNYFLMDPQDPHAEHKVKIGVEQKYGQFPQGTEVTYTCSGNYFLMD

Columns and labels:
[1] = ELISA-based LPS binding assay; parameters: species or system Escherichia coli 055:B5; details: peptide concentration achieving 50% of maximum binding to LPS on the ELISA plate
Procedure: LPS was coated overnight on 96-well plates. Varying concentrations of peptides were allowed to interact with the immobilized LPS. The amount of bound peptides was determined by rabbit anti-S3 IgG and quantitated by ABTS substrate. The average OD405nm of the triplicate samples were calculated and plotted with the corresponding concentration.
The polysorp 96-well plate (MaxiSorp™, Nunc) was first coated with 100 μl per well of 4 μg/ml (approximately 1 μM) of LPS diluted in pyrogen-free phosphate-buffered saline (PBS). The plate was sealed and incubated overnight at room temperature. The wells were aspirated and washed 4 times with 300 μl wash solution (PBS containing 0.05% Tween-20). The wells were blocked with wash solution containing 2% BSA for 1 h at room temperature. After washing 2 times, varying concentrations of peptides were allowed to interact with bound LPS at room temperature for 3 h. Bound peptides were detected by incubation with rabbit anti-S3 antibody and 1:2000 of goat anti-rabbit antibody conjugated with HRP. Each antibody was incubated for 2 h at 37° C. In the final step, 100 μl of substrate, ABTS (Boehringer Mannheim), was added. The absorbance was measured at 405 nm with reference wavelength at 490 nm.

[2] = Surface plasmon resonance (BIAcore 2000, HPA chip) realtime interaction analysis between peptides and LPS; assay type: binding; details: 20 mM Tris-Cl, pH7.3; HPA chip immobilized with lipid A; mean of three independent experiments
Procedure: Surface plasmon resonance (SPR) analysis of the real time interaction between peptides and LPS was performed with BIAcore 2000 (Pharmacia) using HPA chip (Tan et al, 2000b). The affinity constant was calculated using BIAevaluation software 3.0. The mean values were obtained from three independent experiments.
At 4 μg/ml, both recombinant peptides reached saturation of binding to LPS (FIG. 4), while the chemically synthesized peptide continued linearly and required 20 μg/ml to reach saturation of binding with LPS (data not shown). The EBC50 (Endotoxin Binding Concentration) of the peptide, which achieves 50% of maximum binding to LPS on the ELISA plate, reflects the binding activity of peptide to LPS, with the lower EBC50 indicating higher potency. […] The kinetics of binding of peptides to LPS in 20 mM Tris-Cl, pH7.3, was also measured by SPR analysis with BIAcore 2000 using HPA chip, which was immobilized with lipid A (bioactive moiety of LPS). The Kd values of chemically synthesized S3, rS3-1mer and rS3-4mer are (7.80±2.18)×10^−7 M, (4.74±2.34)×10^−8 M, (1.71±1.86)×10^−8 M, respectively.

[3] = tested on: LPS-induced limulus amoebocyte lysate (LAL) reaction; test: Endotoxin neutralization assay based on anti-LAL test (LAL Kinetic-QCL); assay type: biochemical, Escherichia coli 055:B5; details: for ENC50 (50% endotoxin-neutralizing concentration), inhibition of LPS-induced LAL assay: against 5 EU/ml of LPS
Description: The LAL Kinetic-QCL kit utilizes the initial part of the LPS-triggered cascade in limulus amoebocyte lysate to achieve an enzymatic reaction, which catalyses the release of p-nitroaniline from a synthetic substrate, producing a yellow color, which is quantifiable by absorbance at 405nm. The ENC50 (Endotoxin Neutralization Concentration) refers to the peptide concentration required to neutralize 50% of a predetermined quantity of endotoxin. A low ENC50 indicates high potency of the peptide for endotoxin neutralization.
In this assay, peptides of different concentrations were incubated for 1 h at 37° C. with or without an equal volume of LPS in disposable, endotoxin-free borosilicate tubes. Fifty microliters of each mixture was then dispensed into wells of a sterile microtiter plate (Nunclon™ Δsurface, Nunc). Fifty microliters of freshly reconstituted LAL reagent was dispensed into each well.

[4] = tested on: LPS-induced hTNF-α secretion in THP-1 cells; test: Suppression of LPS-induced hTNF-α secretion in human THP-1 cells; assay type: cell-based; details: for ENC50, concentration to achieve 50% inhibition of LPS-induced hTNF-α production: THP-1 cells incubated with 50 EU/ml of LPS, 6 h
Procedure: THP-1 cells were cultured at 37° C. in a humidified environment in the presence of 5% CO2. RPMI 1640 medium was supplemented with 10% fetal bovine serum (FBS), penicillin (100 U/ml), and streptomycin (100 μg/ml). The cells were maintained at a density of 2.5×10^5-6 cells/ml. THP-1 monocytes were transformed into macrophages by addition of phorbol myristic acid, PMA (Sigma) at a stock of 0.3 mg/ml in dimethyl sulfoxide to give a final concentration of 30 ng/ml and 0.01% dimethyl sulfoxide. PMA-treated cell suspensions were immediately plated into 96-well microtiter plate at a density of 4×10^5 cells/ml and allowed to differentiate for 48 h at 37° C. The culture medium was removed and the cells were washed twice with serum-free RPMI 1640. Thereafter, the macrophages were stimulated with 50 EU/ml LPS (a specific activity of LPS that has been standardized by LAL test against FDA-approved LPS standards), peptides alone or LPS (preincubated with various concentrations of peptides) and incubated at 37° C. After 6 h, the culture medium was collected and hTNF-α concentration in the supernatants was assayed using ELISA.

[5] = compared with rS3-1mer and chemically synthesized S3

| Molecule | EBC50 (Endotoxin Binding Concentration) [1] [µg/mL] | Kd [2] [µM] | ENC50 (50% endotoxin-neutralizing concentration), inhibition of LPS-induced LAL assay [3] [µg/mL] | ENC50, concentration to achieve 50% inhibition of LPS-induced hTNF-α production [4] [µg/mL] | fold stronger LPS neutralization efficacy than the monomeric peptides (LAL inhibition) [3, 5] [fold] | fold higher anti-LPS activity than the monomers (suppression of TNF-α release) [4, 5] [fold] |
| --- | --- | --- | --- | --- | --- | --- |
| rS3-1mer: recombinant S3 monomer from acid digestion of rS3-4mer, with additional Asp and Pro at the ends, SEQ ID NO:7 (PHAEHKVKIGVEQKYGQFPQGTEVTYTCSGNYFLMD) | 1.02 | 0.0474 | 9.2 | 83.2 |  |  |
| B1 | 0.41 | 0.0171 | 5.4 | 40.4 | 2 | 2 |
